Measured values as given in PMC11650696.

How the values were obtained:
[1] = target: TLR5 (UniProt O60602)
[2] = target: Naip5 and Naip6 (Naip5/6) (mouse (endogenous in BMDMs))
[3] = target: TLR5 (UniProt O60602); remark: listed apart in the source

Chain of UniProt O60602 (O60602 21-858): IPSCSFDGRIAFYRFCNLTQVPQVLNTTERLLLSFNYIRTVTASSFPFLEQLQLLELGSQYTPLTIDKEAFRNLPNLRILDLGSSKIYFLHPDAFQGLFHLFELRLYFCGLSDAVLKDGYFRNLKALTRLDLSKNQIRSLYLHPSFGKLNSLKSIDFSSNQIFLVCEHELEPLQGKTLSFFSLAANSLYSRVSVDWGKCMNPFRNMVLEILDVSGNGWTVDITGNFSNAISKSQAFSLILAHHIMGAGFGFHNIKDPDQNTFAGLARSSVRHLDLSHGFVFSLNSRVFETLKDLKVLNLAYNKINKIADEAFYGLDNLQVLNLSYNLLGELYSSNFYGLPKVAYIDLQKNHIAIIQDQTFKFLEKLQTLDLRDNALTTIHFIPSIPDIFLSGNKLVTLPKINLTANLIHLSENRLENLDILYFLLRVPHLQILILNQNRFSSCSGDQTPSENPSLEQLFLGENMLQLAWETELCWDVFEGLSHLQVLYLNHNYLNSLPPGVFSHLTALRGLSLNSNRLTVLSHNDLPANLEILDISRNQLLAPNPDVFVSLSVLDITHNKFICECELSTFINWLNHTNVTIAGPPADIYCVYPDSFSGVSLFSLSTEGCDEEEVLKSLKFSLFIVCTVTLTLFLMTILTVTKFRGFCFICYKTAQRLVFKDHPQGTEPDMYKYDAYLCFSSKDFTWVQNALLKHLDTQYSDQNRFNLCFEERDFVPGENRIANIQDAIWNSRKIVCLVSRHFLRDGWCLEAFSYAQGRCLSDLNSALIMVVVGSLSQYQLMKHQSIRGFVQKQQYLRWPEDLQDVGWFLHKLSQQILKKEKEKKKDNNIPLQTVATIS

Substance | TLR5 EC50 (NF-κB luciferase reporter assay, stably transfected CHO K1 cells) [1] [ng/mL] | Inflammasome EC50 (IL-1β secretion of LPS-primed mouse BMDMs after transfection of the protein) [2] [ng/mL] | TLR5 stimulatory activity, EC50 (NF-κB luciferase reporter assay, stably transfected CHO K1 cells) [3] [ng/mL]
FliC^ΔD3 (from UniProt P06179 1-495) (natural protein) | 0.1 |  | 
FliC flagellin monomers isolated from S. Typhimurium strain SL1344 (ΔflgM) (from UniProt P06179 1-495) (natural protein) | 1.2 | 2 | 1.1
